Data on 120 sequences can be found in the supplement of paper PMC10126150.

± gives the standard deviation of the averaged measurements.
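Also: ATP exposure 15 min at 22 °C before imaging.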

For this data set, the system named is ATP. Put plainly: switch fluorescence ratio, 500 uM ATP over buffer (Cy3 cluster intensity, sum of 5 cycles each) (fold (ratio)); higher = stronger signal-on switching upon ATP binding; sequences stand for … in TCGTCGGCAGCGTCAGATGTGTATAAGAGACAGTTTTTTTTTTTTTTTTTTTTTTTTT…TC. The conditions noted are these: aptamer strand: ATP DNA aptamer (quencher-CACCTGGGGGAGTATTGCGGAGGAAGG + anchor), 100 nM annealed; ATP concentration: 500 uM. The method in brief:
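Clusters with intensities outside 100-1000 RFU were excluded. The remaining Cy3-labelled switching-strand clusters on a modified Illumina MiSeq flow-cell had been annealed to 100 nM quencher-labelled ATP aptamer and imaged in selection buffer, then after 15 min with 500 uM ATP at 22 °C, for five cycles separated by NaOH stripping and re-annealing. The fluorescence ratio, averaged per switch-domain sequence, is each cluster's summed target-cycle Cy3 intensity over its summed buffer-cycle Cy3 intensity.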
For the sequence TTTATTCCGG, the switch fluorescence ratio turned out to be 1 ± 0.01.

Regarding CTGGTGGAGC, the switch fluorescence ratio is 0.954 ± 0.021.

Regarding TGGGGGCGCC, the switch fluorescence ratio was 0.982 ± 0.041.

Consider AACAGGACTG, for which the switch fluorescence ratio worked out at 1 ± 0.036.

As to GAGAAAATCT, the switch fluorescence ratio is 1.01 ± 0.033.

As for TTGGTTACTT, the switch fluorescence ratio amounted to 1.01 ± 0.011.

With AAAGGGTGGG, the switch fluorescence ratio amounted to 1.01 ± 0.013.

For CTCACCACGA, the switch fluorescence ratio was 1.09 ± 0.057.

Regarding TATTCGTTCT, the switch fluorescence ratio stood at 0.9985 ± 0.0022.

Regarding CATGGTTCGC, the switch fluorescence ratio is 0.985 ± 0.053.

On to TATGTACTAA, for which the switch fluorescence ratio is 1.08 ± 0.023.

Take ATTAAAACGG: the switch fluorescence ratio turned out to be 1.07 ± 0.098.

Regarding ATGGCGGGTT, the switch fluorescence ratio turned out to be 1 ± 0.016.

Turning to GTTAGGAGTC, the switch fluorescence ratio stood at 0.992 ± 0.018.

On to TTATTAGGCA, for which the switch fluorescence ratio worked out at 1.01 ± 0.023.

As to GTTTCTTCGA, the switch fluorescence ratio is 0.973 ± 0.013.

On to ACGGTTTTTG, for which the switch fluorescence ratio is 0.993 ± 0.029.

Turning to TGTTTTCGCT, the switch fluorescence ratio was found to be 0.9969 ± 0.0097.

As to GACTAAAGTG, the switch fluorescence ratio amounted to 1.01 ± 0.044.

On to CTCTTAGTTT, for which the switch fluorescence ratio stood at 0.999 ± 0.023.

In the case of ATAATTTTTT, the switch fluorescence ratio is 1.03 ± 0.063.

Turning to CTGCCCTATT, the switch fluorescence ratio came out at 1 ± 0.023.

Take TAAGTGTTTT: the switch fluorescence ratio came to 0.994 ± 0.023.

Regarding TTTTTAATAG, the switch fluorescence ratio was determined as 0.9855 ± 0.002.

As to TGTTCTTAAG, the switch fluorescence ratio stood at 0.975 ± 0.022.

Consider TTTGATTGTG, for which the switch fluorescence ratio was found to be 1.03 ± 0.029.

With AAGATTAGGT, the switch fluorescence ratio is 1 ± 0.059.

For the sequence GATCATAGTT, the switch fluorescence ratio was found to be 0.995 ± 0.013.

On to GGGTGTAGAG, for which the switch fluorescence ratio stood at 1.05 ± 0.078.

For GGGTAGTTGG, the switch fluorescence ratio came out at 0.998 ± 0.082.

With TTTAGAAACT, the switch fluorescence ratio came out at 1.027 ± 0.0067.

Turning to ATAGGGTTGC, the switch fluorescence ratio was determined as 1.01 ± 0.014.

With TCAGTAGGCA, the switch fluorescence ratio stood at 1.01 ± 0.011.

As for TATGGTGTTT, the switch fluorescence ratio is 1.02 ± 0.036.

On to AAGGGGGATG, for which the switch fluorescence ratio amounted to 1.01 ± 0.035.

As for TTATTTGAGT, the switch fluorescence ratio is 1.06 ± 0.12.

Regarding TGATTTAACC, the switch fluorescence ratio was 1.05 ± 0.021.

As to GGCGGGGGAC, the switch fluorescence ratio was 0.987 ± 0.057.

For AACGTTGGGG, the switch fluorescence ratio was determined as 0.967 ± 0.017.

As for GAAGTGGGAT, the switch fluorescence ratio is 0.984 ± 0.022.

In the case of TTAGAGAGGT, the switch fluorescence ratio worked out at 0.988 ± 0.03.

Regarding ATGATTGGTT, the switch fluorescence ratio is 1 ± 0.022.

Turning to TAAGTTGGGT, the switch fluorescence ratio turned out to be 0.994 ± 0.042.

For TGATGGCTGC, the switch fluorescence ratio amounted to 1.04 ± 0.013.

Consider TAACTGGCTT, for which the switch fluorescence ratio stood at 1.01 ± 0.036.

With TAGACAGTTT, the switch fluorescence ratio came out at 0.993 ± 0.023.

As for GACTACCCCT, the switch fluorescence ratio was found to be 1.234 ± 0.011.

In the case of ACACGCGCCT, the switch fluorescence ratio was found to be 1.08 ± 0.011.

Regarding ATCTTAGGGT, the switch fluorescence ratio came out at 0.978 ± 0.039.

With GATGACAGAG, the switch fluorescence ratio came to 0.974 ± 0.047.

As to GCCGCAGGGG, the switch fluorescence ratio was 2.61 ± 1.3.

For GCAGGTTGGC, the switch fluorescence ratio was 0.992 ± 0.029.

Regarding ACTAGTTTTC, the switch fluorescence ratio was determined as 0.9611 ± 0.0091.

For ATTAGGGGAT, the switch fluorescence ratio was determined as 1.01 ± 0.018.

As for GATGAATTAG, the switch fluorescence ratio amounted to 1.005 ± 0.0082.

In the case of TTGGTACGGG, the switch fluorescence ratio came to 1.01 ± 0.047.

Take GGTAATTGGG: the switch fluorescence ratio stood at 1.19 ± 0.27.

In the case of CAAACGGGGG, the switch fluorescence ratio came out at 0.983 ± 0.042.

Consider ACGGATTAGG, for which the switch fluorescence ratio is 1.01 ± 0.021.

Take TCTGAAAGTG: the switch fluorescence ratio is 0.989 ± 0.059.

As to TTGTGATACT, the switch fluorescence ratio came to 1.07 ± 0.044.

GGGATTATGG: the switch fluorescence ratio turned out to be 1.01 ± 0.038.

On to GTGTCCGGTA, for which the switch fluorescence ratio came to 0.983 ± 0.037.

In the case of GACTAATAGG, the switch fluorescence ratio amounted to 0.992 ± 0.012.

As for AGGCCTCAGG, the switch fluorescence ratio is 0.99 ± 0.022.

For TAAAGGGTAT, the switch fluorescence ratio is 0.988 ± 0.032.

For the sequence GGGGCAAAGG, the switch fluorescence ratio is 1.03 ± 0.075.

On to GTTTTGCCTC, for which the switch fluorescence ratio worked out at 0.984 ± 0.01.

For ATCCTGCAGT, the switch fluorescence ratio came to 1.15 ± 0.031.

As for GGATAGAGAA, the switch fluorescence ratio turned out to be 0.9789 ± 0.008.

On to CACGTTGCCT, for which the switch fluorescence ratio is 0.979 ± 0.052.

For TTCTACTGGG, the switch fluorescence ratio turned out to be 1.01 ± 0.028.

As to GGGCCAGTGA, the switch fluorescence ratio was determined as 1.03 ± 0.039.

In the case of TGTGAGGTTC, the switch fluorescence ratio is 0.9675 ± 0.0075.

Turning to GGAGATGCGG, the switch fluorescence ratio was found to be 1.02 ± 0.011.

Regarding TAGGGTCACG, the switch fluorescence ratio came to 0.99721 ± 0.00082.

For TTTGTGTGCG, the switch fluorescence ratio turned out to be 0.904 ± 0.047.

For the sequence TTTTCGGGTA, the switch fluorescence ratio was 1.02 ± 0.0091.

As to TTATGAGGGG, the switch fluorescence ratio stood at 1.009 ± 0.0077.

In the case of TTGGATAAAC, the switch fluorescence ratio was 1.03 ± 0.053.

For ACTAAGGGCG, the switch fluorescence ratio is 1.09 ± 0.019.

As for TTAGGCTTT, the switch fluorescence ratio was determined as 0.9374 ± 0.0049.

In the case of TGTTTTTAAT, the switch fluorescence ratio worked out at 0.99 ± 0.025.

Regarding TTTTTTAACG, the switch fluorescence ratio turned out to be 0.9973 ± 0.0053.

Consider ATTCCTCTGG, for which the switch fluorescence ratio is 1.2 ± 0.018.

In the case of ATTAGAGCGT, the switch fluorescence ratio amounted to 1.013 ± 0.0045.

As for TTAAGGGCGC, the switch fluorescence ratio was 1 ± 0.084.

For GGGGGGAAAT, the switch fluorescence ratio came out at 1.01 ± 0.057.

Turning to AGATATTCGG, the switch fluorescence ratio came to 0.984 ± 0.07.

AAGTAAGGGG: the switch fluorescence ratio worked out at 0.955 ± 0.054.

On to GCAGGTCAAT, for which the switch fluorescence ratio was 1.03 ± 0.018.

Take TATCGGGTCG: the switch fluorescence ratio worked out at 1.12 ± 0.13.

As to TTGAGATGGT, the switch fluorescence ratio stood at 0.954 ± 0.017.

Turning to AACAGGTACT, the switch fluorescence ratio turned out to be 1.074 ± 0.0094.

In the case of AAGGCTTAGT, the switch fluorescence ratio amounted to 1.01 ± 0.052.

As to AGTGGTGGGC, the switch fluorescence ratio came out at 0.979 ± 0.056.

Regarding CGGAGTTACA, the switch fluorescence ratio worked out at 1.068 ± 0.0072.

Regarding TTGGGGGACG, the switch fluorescence ratio is 0.982 ± 0.048.

For AATAACTCCG, the switch fluorescence ratio was determined as 1.224 ± 0.008.

Regarding TTTCAGTGCA, the switch fluorescence ratio is 1.02 ± 0.029.

Consider TTGTTATTGG, for which the switch fluorescence ratio was found to be 0.978 ± 0.038.

Regarding ATACGTTTCG, the switch fluorescence ratio came to 0.998 ± 0.03.

For TTTCCTTGTG, the switch fluorescence ratio was found to be 1.36 ± 0.53.

Turning to AAAGCAGGTA, the switch fluorescence ratio turned out to be 0.989 ± 0.029.

On to TATGTTTCTA, for which the switch fluorescence ratio was found to be 1.0004 ± 0.00054.

With ACGCTATCGC, the switch fluorescence ratio is 1.526 ± 0.0041.

On to CAACTTGGGA, for which the switch fluorescence ratio is 1.05 ± 0.015.

In the case of TGATAGTAT, the switch fluorescence ratio is 0.96 ± 0.037.

Take AGTTAAAGGT: the switch fluorescence ratio stood at 0.992 ± 0.023.

Turning to TTTATGAGCG, the switch fluorescence ratio was determined as 0.973 ± 0.028.

CGGGGGTTCG: the switch fluorescence ratio stood at 1.05 ± 0.057.

As for TTAAGGGCAT, the switch fluorescence ratio is 1 ± 0.015.

With CGAACAGCGC, the switch fluorescence ratio was determined as 1.01 ± 0.019.

For CGGCTGGGTA, the switch fluorescence ratio was found to be 1.014 ± 0.0054.

Take TTCAGCCATT: the switch fluorescence ratio was 1.01 ± 0.041.

Take GAGGGGCCGG: the switch fluorescence ratio was 0.972 ± 0.057.

Turning to AAATTTCTTA, the switch fluorescence ratio stood at 1 ± 0.026.

Consider TTAAATTCAT, for which the switch fluorescence ratio was determined as 0.97175 ± 0.0009.

Consider TCTTTGTTGA, for which the switch fluorescence ratio amounted to 0.995 ± 0.032.

In the case of CTCGTCGTAT, the switch fluorescence ratio worked out at 1.06 ± 0.05.
